# In patent US20210317178A1 (D AND D PHARMATECH, published 2021):
# Positions of bridges follow the written chain, without caps; N, C: chain ends. Non-standard residues stand in square brackets, D forms with d. No end group written: not given here. tri‑branched mPEG‑MAL 50 kDa = tri-branched maleimide-activated monomethoxy PEG, 50 kDa; Aib = CC(C)(N)C(=O)O
# Key:
# [1] = molecular target: human GLP-1 receptor (human, UniProt P43220 24-463); experiment: cell-based or functional assay
# [2] = molecular target: human glucagon receptor (GCGR) (human, UniProt P47871 26-477); experiment: cell-based or functional assay
# human glucagon receptor (GCGR), sequence (P47871 26-477): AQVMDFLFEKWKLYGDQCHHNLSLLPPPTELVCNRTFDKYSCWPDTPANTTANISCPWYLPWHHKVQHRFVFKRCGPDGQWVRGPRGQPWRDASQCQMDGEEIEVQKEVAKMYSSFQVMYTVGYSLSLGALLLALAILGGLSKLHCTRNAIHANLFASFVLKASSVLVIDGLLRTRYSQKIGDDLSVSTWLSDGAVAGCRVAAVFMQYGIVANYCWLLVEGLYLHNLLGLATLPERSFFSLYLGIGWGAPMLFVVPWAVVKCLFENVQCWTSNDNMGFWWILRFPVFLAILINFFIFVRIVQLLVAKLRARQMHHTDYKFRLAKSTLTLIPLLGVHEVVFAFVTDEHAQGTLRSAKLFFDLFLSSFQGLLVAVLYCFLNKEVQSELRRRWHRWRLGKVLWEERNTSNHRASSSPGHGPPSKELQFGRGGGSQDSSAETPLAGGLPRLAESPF
Binder,EC50 of GLP-1 receptor (nM); cAMP (luciferase reporter) in HEK293/CRE-Luc cells [1],EC50 of glucagon receptor (GCGR) (nM); cAMP in CHO-K1 cells [2]
"H[Aib]QGTFTSDYSKYLDEQAAKEFVQWLMNTC(tri‑branched mPEG‑MAL 50 kDa) (lactam 16-20) [conjugate of Example 2 (polypeptide of SEQ ID NO. 2 bound to tri-branched mPEG-MAL, MW 50 kDa)]",2.12 nM,47 nM
"H[Aib]QGTFTSDYSKYLDEQAAKEFVQWLMNTC (lactam 16-20) [polypeptide of Example 1 (polypeptide into which cysteine was introduced, SEQ ID NO. 2)]",0.13 nM,38.6 nM
